From article PMC11094075, “Ago2/CAV1 interaction potentiates metastasis via controlling Ago2 localization and miRNA action” (EMBO Reports, 2024)

Target: T1, HA-tagged wild-type Ago2 (HA-Ago2Wt), in Ago2-knockout A549 and HCC1806 cells (human, UniProt Q9UKV8 1-859)
T1 construct: Argonaute-2 (Ago2), human; source: lentiviral (pLV-EF1a-HA-Ago2-Blast), Ago2-knockout A549 and HCC1806 cells, in lysate; not shown: HA, N-terminal, kept
Test: co-IP; Ago2-knockout A549 and HCC1806 cells expressing HA-Ago2Wt, HA-Ago2K212A or HA-Ago2K212R; IP with anti-HA, blot for endogenous CAV1; ratio pCAV1/pHA; vehicle or TM (10 µM)
Settings: partners not purified

T1 sequence (Q9UKV8 whole entry): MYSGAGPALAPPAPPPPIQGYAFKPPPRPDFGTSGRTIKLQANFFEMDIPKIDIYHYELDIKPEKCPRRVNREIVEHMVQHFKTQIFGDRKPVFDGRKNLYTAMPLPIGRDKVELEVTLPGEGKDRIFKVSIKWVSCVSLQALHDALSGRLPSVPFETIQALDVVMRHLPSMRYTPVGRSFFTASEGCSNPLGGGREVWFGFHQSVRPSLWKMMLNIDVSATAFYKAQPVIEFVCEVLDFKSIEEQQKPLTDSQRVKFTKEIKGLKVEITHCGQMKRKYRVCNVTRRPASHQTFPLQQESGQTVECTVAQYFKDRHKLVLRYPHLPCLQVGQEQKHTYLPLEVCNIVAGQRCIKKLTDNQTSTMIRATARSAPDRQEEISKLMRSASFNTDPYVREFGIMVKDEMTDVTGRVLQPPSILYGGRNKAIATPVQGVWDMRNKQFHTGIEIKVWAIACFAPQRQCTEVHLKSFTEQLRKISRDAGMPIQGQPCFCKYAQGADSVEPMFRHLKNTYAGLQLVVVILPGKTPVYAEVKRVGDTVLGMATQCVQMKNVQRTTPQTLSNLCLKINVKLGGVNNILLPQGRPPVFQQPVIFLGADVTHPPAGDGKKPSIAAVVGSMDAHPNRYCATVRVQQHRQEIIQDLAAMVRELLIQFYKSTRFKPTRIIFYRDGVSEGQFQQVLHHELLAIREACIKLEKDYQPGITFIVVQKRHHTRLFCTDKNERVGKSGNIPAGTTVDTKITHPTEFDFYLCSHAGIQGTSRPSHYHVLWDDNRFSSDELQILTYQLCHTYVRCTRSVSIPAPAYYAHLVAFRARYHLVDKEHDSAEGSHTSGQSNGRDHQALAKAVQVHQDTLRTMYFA

B1: Caveolin-1 (CAV1), endogenous (natural protein, UniProt Q03135 1-178, looked up)
chain: MSGGKYVDSEGHLYTVPIREQGNIYKPNNKAMADELSEKQVYDAHTKEIDLVNRDPKHLNDDVVKIDFEDVIAEPEGTHSFDGIWKASFTTFTVTKYWFYRLLSALFGIPMALIWGIYFAILSFLHIWAVVPCIKSFLIEIQCISRVYSIYVHTVCDPLFEAVGKIFSNVRINLQKEI
notes: Caveolin-1 (CAV1), human; source: endogenous
For B1, the “percent of pCAV1/pHA left in cells treated with TM (10 µM) against vehicle” value was about 49%.
